Results on 72 sequences are retold here after the supplement of paper PMC10567573.

A short description of the data set: protein stability index of a GFP-peptide fusion (GPS, HEK-293T) (PSI 1-6); higher = more stable.
Setting [1] is: treatment: DMSO, c terminus: a fixed tail appended.
[2] abbreviates: treatment: MLN4924 1 uM, 8 h, c terminus: a fixed tail appended.
The mark [3] stands for this setting: treatment: DMSO, c terminus: native.
Setting [4] is: treatment: MLN4924 1 uM, 8 h, c terminus: native.

± gives the standard deviation.
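Also: 24-mer peptide tiles fused after GFP, lentivirally expressed, FACS-sorted into six equal bins by GFP/DsRed ratio, decoded by Illumina sequencing, PSI is the read-weighted mean bin number.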

On to CNCALEELRLVFGPLGDQLHAQLR [ELF3], for which the protein stability index reads like this: under setting [1], 2.46 ± 0.86; under setting [2], 2.33 ± 0.38.
For CPVPAHRRGSWRLPYTDGLSWELL [CTBP1-DT] the same measures were 2.49 ± 0.34 and 2.59 ± 0.31.
On to CQEEQLRSHENKLRQLTAELAEHR [PSD2], for which the protein stability index is, setting by setting: under setting [1], 4.41 ± 0.25; under setting [2], 4.34 ± 0.16.
With CQPRNLDKERAVLLQRRKRENMSD [KMT2E], the protein stability index under setting [1] worked out at 4.32 ± 0.13 and the protein stability index under setting [2] came out at 4.29 ± 0.12.
For CQSVLEDFNLCLFYLPSSPNLSLA [SMG5] the same measures were 2.5 ± 0.65 and 2.72 ± 0.63.
For CWSRDGHKLVSASTDNIVSQWDVL [RBBP5] the same measures were 2.81 ± 0.12 and 2.87 ± 0.18.
Sequence CYVSRRLSQLSSHDPLWRRHCKKY [FBXO3] registered a protein stability index under setting [1] of 2.32 ± 0.12 and a protein stability index under setting [2] of 2.4 ± 0.23.
For DAPVPDCLGVHCDFHQGLLSFYNA [FSD1] the same measures were 2.41 ± 0.094 and 2.52 ± 0.26.
For DDAVAGDFALINKLDIQCDLKTLS [ATE1] the same measures were 4.18 ± 0.34 and 4 ± 0.17.
For DDSGKDKKKKTKKIKEKYIDQEEL [HSP90AB1] the same measures were 5.39 ± 0.29 and 5.37 ± 0.32.
DDVEMKNGITQGDKLRALKSQRQP [CDC14A]: the protein stability index reads like this: under setting [1], 4.91 ± 0.25; under setting [2], 5.05 ± 0.25.
For DDVRLLCHLTPSIYTEFPDETLRS [INTS3] the same measures were 3.41 ± 0.2 and 3.49 ± 0.54.
For DEAELDYLMDVLVGTQALERPPGP [SERTAD1] the same measures were 3.74 ± 0.35 and 3.87 ± 0.33.
For DEGFIKEEERPLPEKEYQRQVWLL [KCNA1] the same measures were 3.8 ± 0.28 and 3.73 ± 0.24.
DEMQEVPNRVLAPEQSLKKTKTSE [SPANXN3]: the protein stability index by setting is: under setting [1], 5.57 ± 0.2; under setting [2], 5.59 ± 0.24.
For DEQAPQRQRLLADLLHNVSQNIAA [DFFB] the same measures were 3.72 ± 0.16 and 3.58 ± 0.31.
With DESLCPQHHEALSLFCYEDQEAVC [TRIM39], the protein stability index under setting [1] came out at 4.7 ± 0.057 and the protein stability index under setting [2] turned out to be 4.69 ± 0.16.
For DFLCLLGVSYTFDNEDSELNGDYG [MIA2] the same measures were 2.24 ± 0.39 and 2.34 ± 0.44.
The sequence DGSKSEDELDQASTPTDVRDIDL [CCND2] displayed a protein stability index under setting [3] of 4.41 ± 0.26 and a protein stability index under setting [4] of 4.71 ± 0.33.
In the case of DHPLPEVAHVKHLSASQKALKEKE [COX4I1], the protein stability index turned out to be 5.43 ± 0.18 under setting [1] and 5.47 ± 0.17 under setting [2].
For DIIRKQVLGTKVDAERDGVKVPTT [CDC34] the same measures were 4.2 ± 0.34 and 4.23 ± 0.17.
On to DISETFNHANGLTLVSRAHQLVME [PPP2CA], for which the protein stability index was 2.79 ± 0.12 under setting [1] and 2.82 ± 0.29 under setting [2].
For DKDENKLSEASGGRAENGERSDLE [ZC3H15] the same measures were 5.45 ± 0.24 and 5.45 ± 0.28.
For DKELLCCSCQADPRHQGHRVQPVK [TRIM35] the same measures were 3.56 ± 0.32 and 4.06 ± 0.3.
As for DKKVRTIIIRSEVPGIFCAGADLK [AUH], the protein stability index is, setting by setting: under setting [1], 2.12 ± 0.27; under setting [2], 2.11 ± 0.38.
In the case of DLPKAKTRAADLLVNPLDPRNADK [SRPK2], the protein stability index amounted to 4.85 ± 0.24 under setting [1] and 5 ± 0.29 under setting [2].
For DLRHLRAVPTDEARAFAEKNGLSF [RAB11A] the same measures were 3.54 ± 0.2 and 3.52 ± 0.22.
On to DLRHLRAVPTDEARAFAEKNNLSF [RAB11B], for which the protein stability index is, setting by setting: under setting [1], 3.63 ± 0.15; under setting [2], 3.54 ± 0.23.
For DLVERALYSMECAFHPLFSLTSGA [TCF25] the same measures were 3.09 ± 1.3 and 2.84 ± 0.93.
For DMENKENGSVGVKNSMENGRPPDP [SAMD13] the same measures were 5.11 ± 0.27 and 5.15 ± 0.32.
For DPACYEFLWGPRALIETSYVKVLH [MAGEA6] the same measures were 2.26 ± 0.78 and 2.21 ± 0.22.
Take DPDFKDLGALKPLPACEFEMGGSE [NETO1]: the protein stability index runs as follows: under setting [1], 5.24 ± 0.22; under setting [2], 5.27 ± 0.2.
Consider DPLSDSDSMTSQAKPEALSSPKFR [ELOA2], for which the protein stability index came to 5.2 ± 0.23 under setting [1] and 5.27 ± 0.17 under setting [2].
For DPPSSSEECPAHLLEDPLCADVIL [RHOBTB2] the same measures were 4.89 ± 0.21 and 5.11 ± 0.23.
For DPSTGCYMYYFQYLSKTYCVDATR [KMT5A] the same measures were 2.25 ± 0.34 and 2.18 ± 0.61.
For DQDDRRTWDGRPLTMAATFDDCLY [GFOD1] the same measures were 3.74 ± 0.34 and 3.99 ± 0.22.
For DQNNVIENEETGEFSIDNYPTDNT [MIA2], the protein stability index came out at 5.21 ± 0.74 under setting [1] and 5.5 ± 0.17 under setting [2].
Consider DQTKSIVEKIQAKLPGIAKKKAE [RTN3], for which the protein stability index reads like this: under setting [3], 5.46 ± 0.17; under setting [4], 5.56 ± 0.22.
As for DRFQVPTTEVNAWLVHRDPEGSVS [NFE2L1], the protein stability index reads like this: under setting [1], 3.842 ± 0.034; under setting [2], 4.5 ± 0.063.
For DRKVLLKSDSPTGDVLLDETLKHI [GOLPH3L] the same measures were 4.17 ± 0.16 and 4.54 ± 0.3.
For DSAQVARLWGIRKNRPAMNYDKLS [SPDEF] the same measures were 3.24 ± 0.22 and 3.35 ± 0.23.
For DSDFRELHTAREFSEEDEEETTSQ [RTN2] the same measures were 5.64 ± 0.17 and 5.5 ± 0.17.
With DSIKTEVSGCPEDLTVGRAPTADD [NOL4L], the protein stability index under setting [1] is 5.63 ± 0.34 and the protein stability index under setting [2] came out at 5.68 ± 0.15.
For DSRIRFGFLTVTNLGVENMNHYKK [PTPN9] the same measures were 2.53 ± 0.19 and 2.7 ± 0.31.
For DVHNRIVIRGLNTIPLFVQLLYSP [CTNNB1] the same measures were 2.58 ± 0.58 and 2.73 ± 0.5.
In the case of DVNKTDHSQRTALHLAAQKALRTI [INVS], the protein stability index under setting [1] worked out at 3.06 ± 0.42 and the protein stability index under setting [2] was determined as 3.44 ± 0.43.
Consider DYDLVLAEDEEMNRMHESMKLFDS [GNAI1], for which the protein stability index under setting [1] was 4.42 ± 0.26 and the protein stability index under setting [2] is 4.84 ± 0.33.
For DYLPLTALVDGQIFCLHGGLSPSI [PPP2CA] the same measures were 2.58 ± 0.93 and 2.21 ± 0.41.
For DYNPPRVQLSDEMFVFQDGRWVNE [CBY2] the same measures were 4.48 ± 0.23 and 4.37 ± 0.36.
For DYSPYFKTIEDLRNKIIAATIENA [KRT16] the same measures were 2.33 ± 0.22 and 2.44 ± 0.42.
With DYWNLQKDYYPINESLASLPLRVS [CLPTM1], the protein stability index stood at 2.4 ± 0.2 under setting [1] and 2.52 ± 0.17 under setting [2].
For EAELRRRDTFYKEQLERIERKNAE [CHCHD6] the same measures were 5.1 ± 0.41 and 5.34 ± 0.28.
For EAFTLMDQNRDGFIDKEDLKDTYA [MYL5] the same measures were 4.69 ± 0.25 and 4.88 ± 0.11.
Take EANSSNSQKNEKALTNIQNCMAEK [C8orf76]: the protein stability index under setting [1] was determined as 4.96 ± 0.38 and the protein stability index under setting [2] is 4.58 ± 0.37.
For EARPIETYQVHDYLRSKLCSLYEN [PPP2R2C] the same measures were 2.7 ± 0.19 and 3.02 ± 0.33.
For EAVFGKYGRIVEVLLMKDRETNKS [RBMX] the same measures were 2.53 ± 0.29 and 2.85 ± 0.52.
For EDDALSDKHGCPAYVSPEILNTTG [TRIB1] the same measures were 4.97 ± 0.24 and 4.95 ± 0.072.
Regarding EDGKTCRRKDVCQAIDHGCEHICV [MATN2], the protein stability index reads like this: under setting [1], 3.82 ± 0.2; under setting [2], 4.24 ± 0.28.
EDKENYKKFYEAFSKNLKLGIHED [HSP90AB1] gave a protein stability index under setting [1] of 4.08 ± 0.34 and a protein stability index under setting [2] of 4.22 ± 0.25.
For EDMLLPLAWRIVNDTYRTDLCLLY [CCNC] the same measures were 2.76 ± 0.57 and 2.59 ± 0.38.
For EDSLGCLTADTKEVTASQEARGLR [IRX6] the same measures were 5.34 ± 0.25 and 5.3 ± 0.27.
With EDSRTSKESMSEADRAQKMDGESE [EHMT1], the protein stability index stood at 5.5 ± 0.33 under setting [1] and 5.64 ± 0.23 under setting [2].
Take EDSVSRLEKEIEVLERGDSAPATA [PALM]: the protein stability index reads like this: under setting [1], 5.49 ± 0.23; under setting [2], 5.47 ± 0.18.
For EECTDLQKEGEFSTCFTELQRDFL [OAS1] the same measures were 4.5 ± 0.32 and 4.52 ± 0.47.
For EEEEEEEDEDDDSADMDESDEDDE [FBXO3] the same measures were 5.37 ± 0.12 and 5.38 ± 0.15.
For EEIKKLTTDPDLILEVLRSSPMVQ [LARP4] the same measures were 2.39 ± 0.7 and 2.64 ± 0.64.
Regarding EEKSKQFLDLMETIDKQREEMAKS [LRRC45], the protein stability index is, setting by setting: under setting [1], 5.28 ± 0.25; under setting [2], 5.3 ± 0.16.
For EEKSVKNTSIRVADFGSATFDHEH [CLK3] the same measures were 5.1 ± 0.11 and 5.07 ± 0.21.
For EENIMKSNIDKKFSAHYDAVEAEL [FAM50A] the same measures were 4.98 ± 0.19 and 5.08 ± 0.083.
For EGAFGEHGSQGTYSNTKENGINGE [MAP2] the same measures were 5.19 ± 0.31 and 5.25 ± 0.17.
Take EGAQLGENKPSTCSFSIERILGLD [HESX1]: the protein stability index was 2.92 ± 0.18 under setting [1] and 3.11 ± 0.1 under setting [2].
For EGHSPGNLPKFCHECGTKYPVEWA [ZC2HC1A] the same measures were 2.91 ± 0.25 and 2.97 ± 0.28.
